From patent publication US20180072816A1 (ADALTA, published 2018) come the findings set out here.

Experiment [1] concerns the target T1, human CXCR4 (human, UniProt P61073 1-352).
T1 construct: also called hCXCR4; Fusin
The experiment is described as follows: SPR (Biacore), biotinylated CXCR4 lipoparticles captured on streptavidin (bt. CXCR4), i-body injected.

The target of experiment [2] is T1, human CXCR4. The experiment can be described thus: SPR (Biacore), immobilised CXCR4 lipoparticles.
Experiment [3] concerns the target T1, human CXCR4. The experiment is described as follows: SPR (Biacore), immobilised CXCR4 lipoparticles. This is another data set of the same source. (In general: In SPR one partner is held on a chip, and binding of the other changes the refractive index at the surface.)
The target in experiment [4] is T1, human CXCR4. The experiment is described as follows: phage display selection on hCXCR4 lipoparticles or CXCR4 positive cells.
The target of experiment [5] is T1, human CXCR4. The experiment can be described thus: flow cytometry on Ramos cells, anti-His-PE; i-body alone or with an excess of SDF-1, MAb 12G5 or AMD3100 [top panel].
Experiment [6] has as its target T1, human CXCR4. The experiment is described as follows: flow cytometry on Ramos cells, anti-His-PE; i-body alone or with an excess of SDF-1, MAb 12G5 or AMD3100 [middle panel].
Experiment [7] concerns the target T1, human CXCR4. The experiment is described as follows: SPR (Biacore), CXCR4 expressed on lipoparticles.
The target of experiment [8] is T1, human CXCR4. The experiment can be described thus: cell-based or functional assay.
For experiment [9], the target named is T1, human CXCR4. The experiment is described as follows: cell-based or functional assay. This is another data set of the same source.
In a further experiment the target is T2, CCR5 (on lipoparticles) (UniProt P51681 1-352, limits assumed).
T2 construct: whole, on cells; Whole receptor in lipoparticles; also called CCR5 positive lipoparticles; GPCR CCR5
T2 sequence (P51681 whole entry): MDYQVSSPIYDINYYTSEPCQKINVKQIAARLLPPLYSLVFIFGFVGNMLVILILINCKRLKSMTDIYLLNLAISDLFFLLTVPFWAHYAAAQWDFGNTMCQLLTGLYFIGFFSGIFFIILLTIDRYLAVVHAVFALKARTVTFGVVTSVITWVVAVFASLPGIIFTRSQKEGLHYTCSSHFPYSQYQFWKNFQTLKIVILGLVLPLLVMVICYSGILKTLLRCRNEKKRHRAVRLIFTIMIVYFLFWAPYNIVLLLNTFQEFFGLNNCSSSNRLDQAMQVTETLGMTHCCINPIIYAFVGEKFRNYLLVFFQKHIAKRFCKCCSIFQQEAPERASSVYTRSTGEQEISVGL
The experiment is described as follows: ELISA, single point, periplasmic fraction on CCR5 positive lipoparticles, 450 nm absorbance. For orientation: An ELISA detects its analyte on a solid surface through an enzyme-linked reagent.

The target in experiment [10] is T1, human CXCR4. The experiment is described as follows: not told (affinity for CXCR4); parent i-body before affinity maturation.
In experiment [11] the target is T1, human CXCR4. The experiment is described as follows: SPR.
The target in experiment [12] is T1, human CXCR4. The experiment can be described thus: off-rate, CXCR4 expressed on lipoparticles.
The target of experiment [13] is T1, human CXCR4. The experiment can be described thus: not told.
The target in experiment [14] is T1, human CXCR4. The experiment is described as follows: cell-based or functional assay. This is another data set of the same source.
Experiment [15] concerns the target T1, human CXCR4. The experiment is described as follows: SPR (Biacore), biotinylated CXCR4 lipoparticles captured on streptavidin (bt. CXCR4), i-body injected. This is another data set of the same source.
Experiment [16] has as its target T1, human CXCR4. The description is as above. The source holds these as a separate data set.
The target in experiment [17] is T3, human serum albumin (human, UniProt P02768 25-609).
T3 construct: also called HSA; HAS
The experiment is described as follows: SPR (Biacore), binding to HSA by the SA21 peptide.

Experiment [18] concerns the target T3, human serum albumin. The experiment can be described thus: SPR.
Experiment [19] has as its target T1, human CXCR4. The experiment is described as follows: SPR (Biacore), biotinylated CXCR4 lipoparticles (bt.CXCR4), three successive injections in one cycle.
Experiment [20] has as its target T1, human CXCR4. The experiment can be described thus: SPR (Biacore).

Several values for one entry are separate records, joined by “and”; a condition that tells them apart may be missing. Equal values may be shown once.

T1 sequence (P61073 whole entry): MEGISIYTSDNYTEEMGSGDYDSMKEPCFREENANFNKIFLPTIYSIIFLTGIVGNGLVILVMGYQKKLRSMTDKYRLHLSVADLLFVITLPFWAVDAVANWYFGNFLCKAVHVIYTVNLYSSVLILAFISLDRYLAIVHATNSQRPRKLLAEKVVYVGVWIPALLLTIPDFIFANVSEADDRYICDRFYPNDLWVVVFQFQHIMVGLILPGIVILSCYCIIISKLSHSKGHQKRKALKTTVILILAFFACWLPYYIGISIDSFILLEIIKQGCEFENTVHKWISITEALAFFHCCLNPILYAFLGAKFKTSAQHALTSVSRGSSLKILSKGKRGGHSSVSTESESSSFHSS

B1: ADCX-306 (designed binder)
chain: LQVDIVPSQGEISVGESKFFLCQVAGFQEWVNWFSPNGEKLTPNQQRISVVWNDDSSSTLTIYNANIDDAGIYKCVVTMPHTLNNLDVRTEATVNVKIFQ
notes: i-body (human NCAM1 domain 1 scaffold)
Usually Kd stands for the free concentration of one partner at which half of the binding sites on the other are occupied at equilibrium, for simple one-to-one binding. As for B1, the equilibrium dissociation constant (Kd) was 22500 nM with human CXCR4 [1], 22000 nM with human CXCR4 [2] and 22500 nM with human CXCR4 [3].

B2: ADCX-6 (designed binder)
chain: LQVDIVPSQGEISVGESKFFLCQVAGLTSLEGISWFSPNGEKLTPNQQRISVVWNDDSSSTLTIYNANIDDAGIYKCVVEDHPQYSKMEEATVNVKIFQ
notes: i-body (human NCAM1 domain 1 scaffold); also called ACDX-6
Take B2: the binding result with human CXCR4 [4] is “binds”.

B3: AM3-114-6H (designed binder)
chain: EAEALQVDIVPYQGEISVGESKFFLCQVAGSLSGIRISWFSPNGEKLTPNQQRISVVWNDDSSSTLTIYNANIDDAGIYKCVVWRTGGYRHRYLVLGEATVNVKIFQ
notes: Construct with N-terminal EAEA and 6H tag, detected with anti-His-PE; not shown: 6H tag (six histidines by the label)
For B3, in the experiment with human CXCR4 [5], the binding result is “binds”.

B4: AM4-272-6H (designed binder)
chain: EAEALQVDIVPSQGEISVGESKFFLCQVAGSYSDYRISWFSPNGEKLTPNQQRISVVWNDDSSSTLTIYNANIDDAGIYKCVVYRIGGYRHRYLVLGEATVNVKIFQ
notes: as for B3
Turning to B4, the binding result in the experiment with human CXCR4 [6] is reported as “binds”.

B5: AM3-920 (designed binder)
chain: LQVDIVPSQGEISVGESKFFLCQVAGSGSGIRISWFSPNGEKLTPNQQRISVVWNDDSSSTLTIYNANIDDAGIYKCVVWRTGGYRHRYLVLGEATVNVKIFQ
As usually defined, the kon is the second-order rate constant of association. The low end stands for slower complex formation, the high end for faster complex formation. For B5, in the experiment with human CXCR4 [7], the Kd was 7.18 nM and 5.87 nM; the association rate constant (kon) is 1.12e+06 M⁻¹ s⁻¹ and 1.26e+06 M⁻¹ s⁻¹.

B6: AM3-523 (designed binder)
chain: LQVDIVPSQGEISVGESKFFLCQVAGSGSHMRISWFSPNGEKLTPNQQRISVVWNDDSSSTLTIYNANIDDAGIYKCVVWRVGGYRHRALVLGEATVNVKIFQ
As for B6, in the experiment with human CXCR4 [7], the Kd is 8.53 nM and 9.47 nM; the kon is 1e+06 M⁻¹ s⁻¹ and 965000 M⁻¹ s⁻¹. The “IC50 (nM) in β-Arrestin BRET assay (Antagonist mode in the presence of 100 nM SDF-1)” value (from here on “IC50 (nM) in β-Arrestin BRET assay”) with human CXCR4 [8] was found to be 12700 nM. Moreover, in the experiment with human CXCR4 [9], the “cAMP inhibition IC50” value is 225 nM.

B7: AM4-746 (designed binder)
chain: LQVDIVPSQGEISVGESKFFLCQVAGSKSNIRISWFSPNGEKLTPNQQRISVVWNDDSSSTLTIYNANIDDAGIYKCVVYRTGGYRHRYLKLGEATVNVKIFQ
In the experiment with human CXCR4 [7], B7 came in with a Kd of 5.36 nM and a kon of 2.5e+06 M⁻¹ s⁻¹. The “IC50 (nM) in β-Arrestin BRET assay” value with human CXCR4 [8] was 741 nM. For the same molecule, in the experiment with human CXCR4 [9], the “cAMP inhibition IC50” value stood at 115 nM.

B8: AM4-613 (designed binder)
chain: LQVDIVPSQGEISVGESKFFLCQVAGSKSDVRISWFSPNGEKLTPNQQRISVVWNDDSSSTLTIYNANIDDAGIYKCVVWRTGGYRHRYLVLGEATVNVKIFQ
In the experiment with human CXCR4 [7], B8 gave a Kd of 7.83 nM and an on-rate constant (kon) of 1.33e+06 M⁻¹ s⁻¹. The “IC50 (nM) in β-Arrestin BRET assay” value in the experiment with human CXCR4 [8] was 1830 nM.

B9: AM4-661 (designed binder)
chain: LQVDIVPSQGEISVGESKFFLCQVAGSKSDFRISWFSPNGEKLTPNQQRISVVWNDDSSSTLTIYNANIDDAGIYKCVVYRTGGYRHRYLVLGEATVNVKIFQ
Take B9: in the experiment with human CXCR4 [7], the dissociation constant (Kd) was 9.53 nM and 9.66 nM; the on-rate constant (kon) was 966000 M⁻¹ s⁻¹ and 983000 M⁻¹ s⁻¹. Further, in the experiment with human CXCR4 [8], the “IC50 (nM) in β-Arrestin BRET assay” value was determined as 1540 nM.

B10: ADCX-99 (designed binder)
chain: LQVDIVPSQGEISVGESKFFLCQVAGSGSDIRISWFSPNGEKLTPNQQRISVVWNDDSSSTLTIYNANIDDAGIYKCVVYRTGGYRHRALVLGEATVNVKIFQ
notes: i-body (human NCAM1 domain 1 scaffold); also called wild-type i-body ADCX-99
As to B10, the binding result with CCR5 (on lipoparticles) is given as “no binding”. Also, the Kd in the experiment with human CXCR4 [2] was 700 nM; in the experiment with human CXCR4 [10], greater than 700 nM; with human CXCR4 [11], 643 nM; with human CXCR4 [3] it was ~600 nM and 623 nM.

B11: AM5-245 (designed binder)
chain: LQVDIVPSQGEISVGESKFFLCQAAGSGSHIRISWFSPNGEKLTPNQQRISVVWNDDSSSTLTIYNANIDDAGIYKCVVWRTGGYRHRALVLGEATVNVKIFQ
Consider B11, for which, in the experiment with human CXCR4 [7], the equilibrium dissociation constant (Kd) is 14.9 nM and 15.9 nM; the kon was 813000 M⁻¹ s⁻¹ and 771000 M⁻¹ s⁻¹.

B12: AM3-466 (designed binder)
chain: LQVDIVPSQGEISVGESKFFLCQVAGSGSHQRISWFSPNGEKLTPNQQRISVVWNDDSSSTLTIYNANIDDAGIYKCVVWRTGAYRHRALVLGEATVNVKIFQ
Regarding B12, in the experiment with human CXCR4 [7], the Kd is 13.8 nM and 15.7 nM; the on-rate (kon) is 465000 M⁻¹ s⁻¹ and 426000 M⁻¹ s⁻¹. Moreover, the “IC50 (nM) in β-Arrestin BRET assay” value with human CXCR4 [8] was 6320 nM.

B13: AM4-1121 (designed binder)
chain: LQVDIVPSQGEISVGESKFFLCQVAGSKSGIRISWFSPNGEKLTPNQQRISVVWNDDSSSTLTIYNANIDDAGIYKCVVYRTGGYRHRYLRLGEATVNVKIFQ
The koff is a measure of how fast the partners let go of each other. Read a high koff as a short-lived complex. As for B13, in the experiment with human CXCR4 [7], the Kd is 7.21 nM and 6.7 nM; the association rate constant (kon) is 1.29e+06 M⁻¹ s⁻¹ and 1.42e+06 M⁻¹ s⁻¹. For the same molecule, the “IC50 (nM) in β-Arrestin BRET assay” value with human CXCR4 [8] was 796 nM. Besides, the “cAMP inhibition IC50” value with human CXCR4 [9] came out at 125 nM. The koff with human CXCR4 [12] was found to be 0.0115 s⁻¹.

B14: 21H5 control i-body (designed binder)
chain: LQVDIVPSQGEISVGESKFFLCQVAGDAKDKDISWFSPNGEKLTPNQQRISVVWNDDSSSTLTIYNANIDDAGIYKCVVTGSDAMSNYSYPISESEATVNVKIFQ
notes: Control i-body used as isotype control; also called negative control i-body; isotype control i-body
For the molecule B14, the binding result in the experiment with human CXCR4 [13] was “no binding”. Further, in the experiment with human CXCR4 [14], the “Calcium Inhibition EC50” value is greater than 10000 nM. The “cAMP inhibition IC50” value with human CXCR4 [9] was greater than 10000 nM.

B15: ADCX-272 (designed binder)
chain: LQVDIVPSQGEISVGESKFFLCQVAGHLEVRSISWFSPNGEKLTPNQQRISVVWNDDSSSTLTIYNANIDDAGIYKCVVEQRGRSQSYFSEATVNVKIFQ
notes: as for B1
For B15, in the experiment with CCR5 (on lipoparticles), the binding result was “no binding”. Moreover, the Kd with human CXCR4 [2] turned out to be 1600 nM; in the experiment with human CXCR4 [15], 1620 nM.

B16: ADCX-54 (designed binder)
chain: LQVDIVPSQGEISVGESKFFLCQVAGRTIIVEISWFSPNGEKLTPNQQRISVVWNDDSSSTLTIYNANIDDAGIYKCVVVLSIRGKWELEATVNVKIFQ
notes: as for B1
For the molecule B16, the binding result in the experiment with human CXCR4 [4] is reported as “binds”.

B17: ADCX-668 (designed binder)
chain: LQVDIVPSQGEISVGESKFFLCQVAGTIWYEQISWFTPNGEKLTPNQQRISVVWNDDSSSTLTIYNANIDDAGIYKCVVWTRPVTSSMHEATVNVKIFQ
notes: as for B1
For B17, the Kd with human CXCR4 [2] was 42000 nM; with human CXCR4 [16], 42300 nM.

B18: AM3-114-Im7-FH-SA21 dual specificity i-body (designed binder)
chain: MALQVDIVPSQGEISVGESKFFLCQVAGSLSGIRISWFSPNGEKLTPNQQRISVVWNDDSSSTLTIYNANIDDAGIYKCVVWRTGGYRHRYLVLGEATVNVKIFQGGGGSELKNSISDYTEAEFVQLLKEIEKENVAATDDVLDVLLEHFVKITEHPDGTDLIYYPSDNRDDSPEGIVKEIKEWRAANGKPGFKQGGGGGSDYKDDDDKGSGHHHHHHHHGGGGSRLIEDICLPRWGCLWEDD
In the case of B18, the Kd with human serum albumin [17] was 518 nM; with human CXCR4 [11], 5 to 10 nM; in the experiment with human serum albumin [18], roughly 500 nM; with human CXCR4 [19], 9.2 nM; in the experiment with human CXCR4 [20], 9 nM. This molecule also registered a koff with human CXCR4 [19] of 0.002 s⁻¹. In addition, the kon in the experiment with human CXCR4 [19] was 210000 M⁻¹ s⁻¹.
